Values after ≈ are worked out from the molar mass of the structure shown. Where no end group is shown, it is not given here.
Experiments:
[1] = Solubility of CXB; type: physicochemical
[2] = Iso-electric point of CPP peptides (Table 1); type: physicochemical
Text: Celecoxib (CXB) was provided by Pfizer (Skokie, Ill.). The triglyceride Miglyol 812 was obtained from Sasol Germany GmbH (Witten, Germany) and Compritol 888 ATO was provided by Gattefosse (Saint Priest, France). The phospholipids 1-palmitoyl-2-oleoyl-phosphatidylcholine (POPC), 1,2-dioleoyl-sn-glycero-3-phosphoethanolamine (DOPE) and 1,2-di-(9Z-octadecenoyl)-sn-glycero-3-[(N-(5-amino-1-carboxypentyl)iminodiacetic acid)succinyl] (nickel salt) (DOGS-NTA-Ni) were purchased from Avanti Polar Lipids (USA). Cholesterol, Tween 80, pH 7.4 phosphate buffer saline (PBS), paraformaldehyde, tetrahydrofuran (THF), trifluoro acetic acid (TFA), and dialysis membranes (molecular weight cut off 12,400 daltons and flat width of 23 mm) were procured from Sigma-Aldrich Chemicals (St. Louis, USA). Polyoxyethylene-20 oleyl ether or Volpo-20 (Oleth-20) was a kind gift from Croda Inc (New Jersey, USA). Vivaspin centrifuge filters (molecular weight cut off 10,000 Daltons) was procured from Sartorius Ltd, (Stonehouse, UK). All other chemicals used herein were of analytical grade. All of the CPP peptides were synthesized by GenScript Corporation (NJ, USA). Sce Table 1 below for details of the composition, molecular weight and iso-electric points of the CPPs. Fluorescent Isothiocyanate (FITC), DID-oil and DIO fluorescent dyes were procured from Invitrogen (USA).

solubility ([1]; 0.1% w/v Volpo 20 in pH 7.4 PBS, aqueous with cosolvent or surfactant or cyclodextrin, in 0.1% Volpo 20 (receptor fluid, pH 7.4 PBS), read-out: saturation solubility) [µg/mL]	solubility in water ([1]; water)	Molecule	Iso-electric point [2]
30 (≈ 78.7 µM)	insoluble in water	Cc1ccc(-c2cc(C(F)(F)F)nn2-c2ccc(S(N)(=O)=O)cc2)cc1 [CXB, Celecoxib]	
		RRRRRRRRHHHHHH (synthetically generated peptide) [R8]	13.2
		RRRRRRRRRRRHHHHHH (synthetically generated peptide) [R11]	13.4
		RRRRRRRRRRRRRRRHHHHHH (synthetically generated peptide) [R15]	13.5
		YGRKKRRQRRRHHHHHH [TAT]	12.7
		YKALRISRKLAKHHHHHH (syntheticall generated peptide) [reference compound]	11.6

— patent US8715736B2, “Nanoparticle formulations for skin delivery” (Florida Agricultural and Mechanical University, priority 2009, dated 2014)
